In paper PMC3549482:
Like-named read-outs stand apart in the source and are kept apart here.

What was measured:
[1] = target: CD81 on 293-T cells (human (endogenous in HEK 293-T)) (UniProt P60033); assay: flow cytometry on cells
[2] = target: CD81 on 293-T cells (human (endogenous in HEK 293-T)) (UniProt P60033); assay: flow cytometry on cells; remark: listed apart in the source

UniProt P60033, sequence (P60033 whole entry): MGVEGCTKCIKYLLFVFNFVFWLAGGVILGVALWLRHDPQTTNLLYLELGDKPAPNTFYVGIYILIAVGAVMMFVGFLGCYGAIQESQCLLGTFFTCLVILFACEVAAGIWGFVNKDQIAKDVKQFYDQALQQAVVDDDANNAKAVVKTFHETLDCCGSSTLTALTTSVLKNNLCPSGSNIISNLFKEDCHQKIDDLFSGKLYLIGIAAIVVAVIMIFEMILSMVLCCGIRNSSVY

How did the Mean FI [1] turn out when “HCV E2 (strain not told for the experiment on 293-T cells) (natural protein)” was run?
The Mean FI was 62.

What about the Mean FI [2] of the same substance?
The Mean FI was 79.
